# Numbering of substitutions follows the chain as printed.
# T1: Human full length B7-H3 (human, UniProt Q5ZPR3 29-534)
# T1 construct: On 3T12 fibroblasts expressing full length human B7-H3 or on NCI-H1650 cells; signal peptide residues 1-28 stated; also called huB7-H3; CD276
# T1 sequence: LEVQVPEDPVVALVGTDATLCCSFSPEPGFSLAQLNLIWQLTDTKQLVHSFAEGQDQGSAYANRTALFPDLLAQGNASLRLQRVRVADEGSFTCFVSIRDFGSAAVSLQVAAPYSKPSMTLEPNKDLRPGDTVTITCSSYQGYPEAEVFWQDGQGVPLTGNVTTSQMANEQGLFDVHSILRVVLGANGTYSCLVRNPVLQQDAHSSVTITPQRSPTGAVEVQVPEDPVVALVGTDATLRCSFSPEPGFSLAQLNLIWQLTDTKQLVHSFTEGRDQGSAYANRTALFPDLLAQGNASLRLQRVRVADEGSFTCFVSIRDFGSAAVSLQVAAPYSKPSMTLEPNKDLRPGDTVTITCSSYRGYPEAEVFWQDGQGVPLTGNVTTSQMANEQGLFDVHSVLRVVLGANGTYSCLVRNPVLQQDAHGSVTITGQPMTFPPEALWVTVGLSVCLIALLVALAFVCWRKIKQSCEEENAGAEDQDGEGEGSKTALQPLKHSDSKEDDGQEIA
# T2: Human B7-H3-ECD (His tag) (human, UniProt Q5ZPR3 29-461)
# T2 construct: SPR analyte; also called huB7-H3; soluble ECD of human B7-H3
# T2 sequence: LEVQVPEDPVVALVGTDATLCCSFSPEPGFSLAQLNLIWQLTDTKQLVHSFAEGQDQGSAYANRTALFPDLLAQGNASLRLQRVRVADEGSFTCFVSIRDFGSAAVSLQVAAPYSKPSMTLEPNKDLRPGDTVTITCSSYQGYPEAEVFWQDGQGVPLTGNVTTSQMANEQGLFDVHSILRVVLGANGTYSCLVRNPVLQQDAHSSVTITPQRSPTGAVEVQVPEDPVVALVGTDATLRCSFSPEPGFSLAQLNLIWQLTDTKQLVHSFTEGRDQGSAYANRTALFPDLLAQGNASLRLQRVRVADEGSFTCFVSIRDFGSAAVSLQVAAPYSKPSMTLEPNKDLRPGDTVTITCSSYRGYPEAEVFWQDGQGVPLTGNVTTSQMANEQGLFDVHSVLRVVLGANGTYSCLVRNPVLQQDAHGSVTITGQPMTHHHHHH
# T3: Mouse B7-H3 on cells (mouse, UniProt Q8VE98 29-316)
# T3 construct: whole, on cells
# T3 sequence (looked up): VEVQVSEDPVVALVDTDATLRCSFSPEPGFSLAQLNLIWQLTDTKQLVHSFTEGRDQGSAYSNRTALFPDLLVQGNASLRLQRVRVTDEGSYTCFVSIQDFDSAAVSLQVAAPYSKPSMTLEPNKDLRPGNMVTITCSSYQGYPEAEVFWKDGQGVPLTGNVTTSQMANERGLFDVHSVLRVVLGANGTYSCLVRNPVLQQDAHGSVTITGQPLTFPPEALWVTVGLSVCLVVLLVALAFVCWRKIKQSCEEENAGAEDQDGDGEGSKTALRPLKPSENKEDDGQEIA
# T4: Cyno B7-H3-ECD (his tag) (cynomolgus)
# T4 construct: SPR analyte; also called soluble ECD of cyno B7-H3
# T4 chain: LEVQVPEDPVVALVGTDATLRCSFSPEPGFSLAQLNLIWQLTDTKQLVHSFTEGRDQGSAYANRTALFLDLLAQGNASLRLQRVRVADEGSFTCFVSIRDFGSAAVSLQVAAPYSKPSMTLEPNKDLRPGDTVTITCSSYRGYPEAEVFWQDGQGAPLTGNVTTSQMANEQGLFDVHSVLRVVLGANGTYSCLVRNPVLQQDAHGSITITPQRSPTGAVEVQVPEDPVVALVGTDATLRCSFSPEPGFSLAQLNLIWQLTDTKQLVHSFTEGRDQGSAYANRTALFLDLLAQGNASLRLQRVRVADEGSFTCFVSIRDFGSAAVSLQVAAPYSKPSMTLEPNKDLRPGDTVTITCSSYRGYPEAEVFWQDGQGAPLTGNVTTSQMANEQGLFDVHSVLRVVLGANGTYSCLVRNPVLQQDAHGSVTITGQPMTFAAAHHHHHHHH
# B1: huAb18v10-CZ (antibody, V domains shown)
# VH: EVQLVQSGAEVKKPGSSVKVSCKASGYSFTSYTIHWVRQAPGQGLEWMGYINPNSRNTDYAQKFQGRVTLTADKSTSTAYMELSSLRSEDTAVYYCARYSGSTPYWYFDVWGQGTTVTVSS
# VL: DIQLTQSPSFLSASVGDRVTITCRASSSVSYMNWYQQKPGKAPKPWIYATSNLASGVPSRFSVSGSGTEHTLTISSLQPEDFATYYCQQWSSNPLTFGQGTKLEIK
# modifications: synthon CZ on reduced interchain Cys
# notes: ADC, DAR 2.7
# B2: huAb18v1-CZ (antibody, V domains shown)
# VH: B1 VH with A61N, Q65K, G66D, L70I
# VL: B1 VL with P45L, W46L, V63G, H70F
# modifications: synthon CZ on reduced interchain Cys
# notes: ADC, DAR 2.6
# B3: huAb18v2 (antibody, V domains shown)
# VH: B1 VH
# VL: B1 VL with P45L, W46L, V63G, H70F
# notes: humanized IgG
# B4: huAb18v2-CZ (antibody, V domains shown)
# VH: B1 VH
# VL: B1 VL with P45L, W46L, V63G, H70F
# modifications: synthon CZ on reduced interchain Cys
# notes: ADC, DAR 1.8
# B5: huAb18v3-CZ (antibody, V domains shown)
# VH: B1 VH with M48I, A61N, Q65K, G66D, V68T, K74R
# VL: B1 VL with A42S, G65V
# modifications: synthon CZ on reduced interchain Cys
# notes: ADC, DAR 2.4
# B6: huAb18v4 (antibody, V domains shown)
# VH: B1 VH
# VL: B1 VL with A42S, G65V
# notes: humanized IgG
# B7: huAb18v4-CZ (antibody, V domains shown)
# VH: B1 VH
# VL: B1 VL with A42S, G65V
# modifications: synthon CZ on reduced interchain Cys
# notes: ADC, DAR 2.5
# B8: huAb18v8-CZ (antibody, V domains shown)
# VH: B1 VH with M48I, A61N, Q65K, G66D, V68T, K74R
# VL: B1 VL
# modifications: synthon CZ on reduced interchain Cys
# notes: ADC, DAR 2.6
# B9: huAb18v10 (antibody, V domains shown)
# VH: B1 VH
# VL: B1 VL
# notes: humanized IgG
# B10: huAb18v1 (antibody, V domains shown)
# VH: B1 VH with A61N, Q65K, G66D, L70I
# VL: B1 VL with P45L, W46L, V63G, H70F
# notes: humanized IgG
# B11: huAb18v3 (antibody, V domains shown)
# VH: B1 VH with M48I, A61N, Q65K, G66D, V68T, K74R
# VL: B1 VL with A42S, G65V
# notes: humanized IgG
# B12: huAb18v8 (antibody, V domains shown)
# VH: B1 VH with M48I, A61N, Q65K, G66D, V68T, K74R
# VL: B1 VL
# notes: humanized IgG
# B13: huAb18v6-CZ (antibody, V domains shown)
# VH: B1 VH
# VL: EIVLTQSPDFQSVTPKEKVTITCRASSSVSYMNWYQQKPDQSPKLLIKATSNLASGVPSRFSGSGSGTDFTLTINSLEAEDAATYYCQQWSSNPLTFGQGTKLEIK
# modifications: synthon CZ on reduced interchain Cys
# notes: ADC, DAR 3.4
# B14: huAb18v5 (antibody, V domains shown)
# VH: B1 VH with A61N, Q65K, G66D, L70I
# VL: B13 VL
# notes: humanized IgG
# B15: huAb18v5-CZ (antibody, V domains shown)
# VH: B1 VH with A61N, Q65K, G66D, L70I
# VL: B13 VL
# modifications: synthon CZ on reduced interchain Cys
# notes: ADC, DAR 3.4
# B16: huAb18v7 (antibody, V domains shown)
# VH: B1 VH
# VL: B13 VL with L45P, L46W, K48Y, G63V, G65V, F70H
# notes: humanized IgG
# B17: huAb18v7-CZ (antibody, V domains shown)
# VH: B1 VH
# VL: B13 VL with L45P, L46W, K48Y, G63V, G65V, F70H
# modifications: synthon CZ on reduced interchain Cys
# notes: ADC, DAR 4.3
# B18: huAb18v9-CZ (antibody, V domains shown)
# VH: B1 VH with M48I, A61N, Q65K, G66D, V68T, K74R
# VL: B13 VL with L45P, L46W, K48Y, G63V, G65V, F70H
# modifications: synthon CZ on reduced interchain Cys
# notes: ADC, DAR 2.4
# B19: huAb18v6 (antibody, V domains shown)
# VH: B1 VH
# VL: B13 VL
# notes: humanized IgG
# B20: Ab17 (antibody, mouse IgG2b, V domains shown)
# VH: EVKLVESGGGLVQPGGSLKLSCAASGFTFSSYIMSWVRQTPEKRLEWVASIVSSNITYYPDSMKGRFTISRDNARNILYLQMSSLKSEDTAMYYCARSGTRAWFAYWGQGTLVTVSA
# VL: DIVLTQSPASLAVSLGQRATISCRASKSVSTSAYSYMHWYQQKPGQPPKLLIYLASNLESGVPARFSGSGSGTDFTLNIHPVEEEDAATYYCQHSRELPYTFGGGTKLEIK
# notes: mouse IgG2b/k
# Legend:
# Human full length B7-H3 [1] = target: T1, Human full length B7-H3; assay: FACS (Example 6 method)
# Description: Cells were harvested from flasks when approximately 80% confluent using Gibco® Cell Dissociation Buffer. Cells were washed once in PBS/1% FBS (FACS buffer) then resuspended at 2.5×10⁶ cells/mL in FACS buffer. 100 μL of cells/well were added to a round bottom 96-well plate. 10 μL of a 10× concentration of mAb/ADC (final concentrations are indicated the figures). Wells were washed twice with FACS buffer and resuspended in 50 μL of secondary Ab (AlexaFluor 488) diluted in FACS buffer. The plate was incubated at 4° C. for one hour and washed twice with FACS buffer. Cells were resuspended in 100 μL of PBS/1% formaldehyde and analyzed on a Becton Dickinson LSRII flow cytometer. Data was analyzed using WinList flow cytometry analysis software.
# (§1) The parental chAb18 from which the variants were derived was also tested as a comparator.
# [2] = target: T2, Human B7-H3-ECD (His tag); assay: SPR Biacore, naked mAb
# Source text: Biacore T200 SPR instruments were used to measure the binding kinetics of human B7-H3 (analyte) binding to various mAbs (ligands). The assay format was Fc-based capture via immobilized anti-mouse (Fc) (Pierce 31170) or immobilized anti-human (Fc) (Pierce 31125). A standard amine coupling protocol was employed to immobilize the capture reagents via primary amines to the carboxy-methyl (CM) dextran surface of CM5 sensorchips (Biacore); capture antibodies were coupled to a level of approximately 5000RU. For binding kinetic measurements the assay buffer was HBS-EP+ (Biacore): 10 mM Hepes, pH7.4, 150 mM NaCl, 3 mM EDTA, 0.05% polysorbate 20. During the assay, all measurements were referenced against the capture surface alone. Each assay cycle consisted of the following steps: 1) Capture of ligand to approximately 50RU; 2) Analyte injection over both reference and test surface, 240 μL at 80 μL/min, after which the dissociation was monitored for 900 seconds at 80 μL/min; 3) Regeneration of capture surface with low pH glycine. […] Data were processed and fit to a 1:1 binding model using Biacore T200 Evaluation Software to determine the binding kinetic rate constants, kₐ (on-rate) and kd (off-rate), and the equilibrium dissociation constant (affinity, KD).
# as §1
# Human full length B7-H3 [3] = target: T1, Human full length B7-H3; assay: FACS, 3T12 transfectants
# Description: (§2) A selection of hits were subcloned using the MoFlo (Beckman, Indianapolis, Ind., US) by depositing a single cell per well into 96 well cell culture plates to ensure clonality of the cell line. Resulting colonies were screened for specificity by FACS using mouse 3T12 fibroblast cell lines expressing the human B7-H3, cynomolgous B7-H3 or mouse B7-H3. Isotype of each monoclonal antibody was determined using the Mouse Monoclonal Isostyping Kit (Roche, No. 11-493-027-001, Indianapolis, Ind., USA).
# [4] = target: T5, Cynomolgous B7-H3 on cells (cynomolgus); assay: FACS, 3T12 transfectants
# T5 construct: whole, on cells; also called cyB7-H3; cyno B7-H3
# Description: as §2
# Mouse B7-H3 on cells = target: T3, Mouse B7-H3 on cells; assay: FACS, 3T12 transfectants
# Description: as §2
# [5] = target: T2, Human B7-H3-ECD (His tag); assay: SPR, mAb captured, ECD analyte
# Cyno B7-H3-ECD (his tag) = target: T4, Cyno B7-H3-ECD (his tag); assay: SPR, mAb captured, ECD analyte
Binder,EC50 (Human full length B7-H3 [1]) [nM],Kd [2] [nM],further results
B1,1.19,–,–
B2,1.27,–,–
B3,–,0.69,–
B4,2.25,–,–
B5,1.27,–,–
B6,–,0.57,–
B7,0.9,–,–
B8,1.98,–,–
B9,–,0.25,–
B10,–,0.52,–
B11,–,0.23,–
B12,–,0.25,–
B13,2.09,–,–
B14,–,0.23,–
B15,2.91,–,–
B16,–,0.4,–
B17,1.92,–,–
B18,1.58,–,–
B19,–,0.2,–
B20,–,–,EC50 (Human full length B7-H3 [3]): 2.75 nM; EC50 [4]: 2.6 nM; EC50 (Mouse B7-H3 on cells): 2.39 nM; Kd [5]: 0.034 nM; koff [5]: 1.9e-05 s⁻¹; kon [5]: 540000 M⁻¹ s⁻¹; Kd (Cyno B7-H3-ECD (his tag)): ≤ 0.019 nM; koff (Cyno B7-H3-ECD (his tag)): ≤ 1e-05 s⁻¹; kon (Cyno B7-H3-ECD (his tag)): 510000 M⁻¹ s⁻¹

# Source: patent US20170355769A1 (AbbVie / Abbott, published 2017)
